Laboratory results reported in the supplement of paper PMC10567573.
± gives the standard deviation.

Assay: protein stability index of a GFP-peptide fusion (GPS, HEK-293T) (PSI 1-6); higher = more stable
[1] = treatment: DMSO, c terminus: a fixed tail appended
[2] = treatment: MLN4924 1 uM, 8 h, c terminus: a fixed tail appended
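Also: 24-mer peptide tiles fused after GFP, lentivirally expressed, FACS-sorted into six equal bins by GFP/DsRed ratio, decoded by Illumina sequencing, PSI is the read-weighted mean bin number.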

Sequence	protein stability index [1]	protein stability index [2]	protein stability index (treatment: DMSO, c terminus: native)	protein stability index (treatment: MLN4924 1 uM, 8 h, c terminus: native)
QSGCLYRLRALGERHTMDLTVEGF [TMEM120A]	2.12 ± 0.55	2.27 ± 0.2	–	–
IVWFSFEFVVRCFACPSQALFFKN [KCNA4]	2.91 ± 0.1	2.72 ± 0.81	–	–
VLQDGCVFEKAGVSISVVHGNLSE [CPOX]	3.21 ± 0.32	3.05 ± 0.53	–	–
IRYQSFNNQSDLEKEMQKMNPYKI [PRIM1]	3.07 ± 0.13	3.26 ± 0.28	–	–
VRQPILQYRWDMMHRLGEPQARMR [BEX1]	2.95 ± 0.21	3.22 ± 0.29	–	–
ESLKEELLSLKQNHEQEVNTLRCQ [KRT33B]	4.91 ± 0.099	4.78 ± 0.24	–	–
QYLMASDMAGKIKLWDLRTTKCVR [DCAF4]	2.26 ± 0.11	2.43 ± 0.26	–	–
VCQALAQVDGGANFSVDRWERKEG [CPOX]	4.41 ± 0.14	4.1 ± 0.43	–	–
VLAAKERRCGELKRKLGLTALVGL [TPD52L3]	2.44 ± 0.24	2.07 ± 0.23	–	–
QDQPSEAATGGATLAQTISEAAIG [HDAC6]	5.09 ± 0.23	5.35 ± 0.15	–	–
VTLALLGSYTVQSELGDYDPDECG [EPB41L3]	2.46 ± 0.4	2.62 ± 0.27	–	–
LAAAHGHSEVVEELVSADVIDLFD [RIPK4]	4.08 ± 0.37	4.5 ± 0.46	–	–
ERRELAVEQGERALERRRRALQEE [ZBED3]	5.34 ± 0.17	5.39 ± 0.31	–	–
VIVKEGGLKLIQIQDNGTGIRKED [MLH1]	3.44 ± 0.33	3.48 ± 0.41	–	–
YNENVYTEDGKLDIWSKSNYQVFQ [MED27]	2.5 ± 0.42	2.97 ± 0.4	–	–
SLSEALDLIESDPDAWCDLSKFDL [MYBL2]	3.61 ± 0.23	4.13 ± 0.56	–	–
LLSLVTFTFLSAKCLQGNADGDGG [PCDHGC5]	3.46 ± 0.031	2.93 ± 0.44	–	–
YGGGLGGGFGGGFAGGFVDFGACD [KRT13]	2.39 ± 0.46	2.14 ± 0.67	–	–
PSRVHGSLEPFRPQQAPQDDGSQD [PWWP2B]	5.52 ± 0.21	5.52 ± 0.22	–	–
GSLCAIAGVLTIALPVPVIVSNFN [KCNA4]	3.33 ± 0.42	3.13 ± 0.36	–	–
SFRGAFSNSEKAKNIFRIRFHDPS [NET1]	2.59 ± 0.34	2.65 ± 0.12	–	–
ILHMNGSQSSTYRGTYEQDGRFEK [ZNF396]	2.86 ± 0.41	3.36 ± 0.14	–	–

Sequence	protein stability index [1]	protein stability index [2]	protein stability index (treatment: DMSO, c terminus: native)	protein stability index (treatment: MLN4924 1 uM, 8 h, c terminus: native)
YSHSSTRDGRRDRYSSDTTPLLNG [GOSR1]	4.28 ± 0.4	4.31 ± 0.11	–	–
KQGQCTKGDKCKFSHDLTLERKCE [ZC3H15]	4.75 ± 0.15	4.6 ± 0.1	–	–
LPQDPHTKKALEAHCRADELASQD [PPP2R5C]	5.04 ± 0.2	5.17 ± 0.27	–	–
LRERVKKVKRSLRQARKKGRHLEL [CCDC3]	3.36 ± 0.39	3.58 ± 0.71	–	–
FTFEGFSRLRFLNLGRMIDWVPVE [ZER1]	2.76 ± 0.63	2.81 ± 0.43	–	–
MRDQYEQMAEKNRRDAETWFLSKT [KRT16]	4.29 ± 0.089	4.31 ± 0.12	–	–
ERAHKGEKPYGCSECGKAFPRKSE [ZNF649]	4.23 ± 0.12	4.7 ± 0.48	–	–
GQQDLFRVLKAYTLYRPEEGYCQA [TBC1D10A]	2.03 ± 0.37	2.16 ± 0.31	–	–
KPQEIVQVEIFSTNPDLYPVRRID [IQUB]	2.82 ± 0.38	2.79 ± 0.4	–	–
YAMKYMNKQKCVERNEVRNVFKEL [STK32A]	2.07 ± 0.41	2.24 ± 0.62	–	–
QKRSRAIHSSDEGEDQAGDEDEDD [WAS]	5.69 ± 0.21	5.57 ± 0.24	–	–
LTKSQVQDKPYKCTDCGKSFNHNA [ZNF8]	3.32 ± 0.21	3.54 ± 0.27	–	–
ASGQSYSSREVFTSSSSSSSRQTR [KRT16]	4.84 ± 0.15	4.8 ± 0.21	–	–
QAFRAIDRGDYYLEGYRDNAYKDL [PCMTD1]	2.85 ± 0.19	2.98 ± 0.53	–	–
QNLQEEKERKLECLPPEPSPDDPE [FAF2]	5.44 ± 0.37	5.46 ± 0.46	–	–
TPPPGPASAQPLPAPEAAHTTGPT [TFE3]	5.38 ± 0.27	5.38 ± 0.084	–	–
VDRNTRPGPQDPEESASRQRFGEA [ELOA2]	4.92 ± 0.25	5.14 ± 0.14	–	–
VAAGRTQKAGVTRSGRLILWEAPP [NEK8]	2.85 ± 0.24	2.94 ± 0.24	–	–
QQDDSDEYDDDDSAASTSFQPQPV [ZNF207]	5.4 ± 0.18	5.37 ± 0.18	–	–
VPGGAGPCATVSVFPGARLLTIGD [CARM1]	2.73 ± 0.43	2.53 ± 0.48	–	–
WTNQQKLYSRTGDIVEFVCKSGYH [CFHR2]	2.46 ± 0.35	2.5 ± 0.33	–	–
QFQEALEELAKKRFKDKSSEEAVR [TPPP]	3.49 ± 0.38	3.64 ± 0.39	–	–

Sequence	protein stability index [1]	protein stability index [2]	protein stability index (treatment: DMSO, c terminus: native)	protein stability index (treatment: MLN4924 1 uM, 8 h, c terminus: native)
INVSKGINHLLKSPFSVHPKTGRI [PRIM1]	2.62 ± 0.5	2.65 ± 0.37	–	–
MPGDTDDAFPVHRVMMASASDYFK [KLHL13]	3.66 ± 0.35	3.6 ± 0.13	–	–
LRNFNSAKDMKKAVAHMKYMGKGS [MATN2]	3.05 ± 0.37	3.43 ± 0.46	–	–
RQVVQDLLKAGAEVNVLNDMRDTP [OSBPL1A]	4.45 ± 0.21	4.24 ± 0.25	–	–
QAFRAIDRADYYLEEFKENAYKDL [PCMTD2]	3.34 ± 0.15	3.17 ± 0.23	–	–
PAPEAAHTTGPTGSAPNSPMALLT [TFE3]	4.67 ± 0.12	4.67 ± 0.16	–	–
RLSKEWEDSKRWSKMDQLAKELTA [CHGA]	3.18 ± 0.34	3.41 ± 0.66	–	–
GGKKDKARYIDTHNRVSKEDEDIY [PLK2]	4.37 ± 0.27	4.73 ± 0.4	–	–
QRAKCKDPQLEIAYRGNCKDVSRC [SMOC2]	3.85 ± 0.21	4 ± 0.14	–	–
TLSFIVDGQYMGVAFRGLKGKKLY [SPSB1]	2.27 ± 0.46	2.36 ± 0.36	–	–
LSSLGENPQRQGLLKTPWRAASAM [GCH1]	2.8 ± 0.23	3.17 ± 0.13	–	–
QKAVKSCLVCQASFCELHLKPHLE [TRIM29]	3.86 ± 0.19	3.86 ± 0.25	–	–
TWEQTFQELIQEAKPRATWTLKLD [RTP4]	2.02 ± 0.24	2.25 ± 0.33	–	–
AEKDRRLKKKHQLLEDARRKGMPF [PPFIA4]	4.05 ± 0.29	4.29 ± 0.16	–	–
LQFDPAPRRGEPHVTRRTPDYFL [PPP2CA]	–	–	4.16 ± 0.3	4.18 ± 0.18
KNFSNNSNLIRHQRIHAAERLCMG [ZNF263]	2.86 ± 0.73	2.73 ± 0.35	–	–
SRSAILIQHRRTHTDSKYEHAIAE [ZNF396]	3.63 ± 0.15	3.72 ± 0.19	–	–
AELLLAARLLGALAARSGAAYGPG [TSPAN10]	2.93 ± 0.069	2.77 ± 0.73	–	–
LHTFTPAGRPRAERRPRRVEAERP [FAM189A2]	4.45 ± 0.21	4.45 ± 0.31	–	–
HISSCKLGPQVSLDPMKNVTCENG [LOXL2]	4.15 ± 0.39	4.14 ± 0.49	–	–
LSPLRAASDPLLSSVSPAVSKASS [TFE3]	4.47 ± 0.18	4.68 ± 0.067	–	–
